Reference: PMC7145699, “Structural insights into target DNA recognition by R2R3-MYB transcription factors”

Columns and labels:
[1] = biological target: T1, WER 12-130 (WER-R2R3) (Arabidopsis, UniProt Q9SEI0 12-130); experiment: ITC; ITC: 150 mM NaCl, 20 mM HEPES pH 7.5, 25 C, 400 uM protein into 20 uM DNA; EMSA: 150 mM NaCl, 20 mM Tris-HCl pH 8.0, on ice 1 h, 0.1 uM DNA, 6% native PAGE 0.5x TBE; conditions: protein: recombinant; tags: 6xHis-SUMO removed by Ulp1; blunt
T1 sequence: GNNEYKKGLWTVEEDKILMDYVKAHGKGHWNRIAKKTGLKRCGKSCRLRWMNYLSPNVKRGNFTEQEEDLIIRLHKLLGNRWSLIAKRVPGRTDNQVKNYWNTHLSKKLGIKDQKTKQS

[2] = biological target: T1, WER 12-130 (WER-R2R3); experiment: crystal structure (2.15 A); ITC: 150 mM NaCl, 20 mM HEPES pH 7.5, 25 C, 400 uM protein into 20 uM DNA; EMSA: 150 mM NaCl, 20 mM Tris-HCl pH 8.0, on ice 1 h, 0.1 uM DNA, 6% native PAGE 0.5x TBE; conditions: protein: recombinant; tags: 6xHis-SUMO removed by Ulp1; 5' overhang 1 nt at both ends
[3] = biological target: T1, WER 12-130 (WER-R2R3); experiment: ITC; ITC: 150 mM NaCl, 20 mM HEPES pH 7.5, 25 C, 400 uM protein into 20 uM DNA; EMSA: 150 mM NaCl, 20 mM Tris-HCl pH 8.0, on ice 1 h, 0.1 uM DNA, 6% native PAGE 0.5x TBE; conditions: protein: recombinant; tags: 6xHis-SUMO removed by Ulp1; blunt; remark: listed apart in the source
[4] = biological target: T1, WER 12-130 (WER-R2R3); experiment: as above; conditions: protein: recombinant; tags: 6xHis-SUMO removed by Ulp1; blunt; remark: listed apart in the source

B1: A12:T11* (dsDNA)
DNA 1: AAATTCTCCAAACGCATTTTC
DNA 2: GAAAATGCGTTTGGAGAATTT
Question: Which Kd [1] does the source give for B1 here?
Answer: Its Kd is 2.59 µM.

B2: crystal DNA (dsDNA)
DNA 1: AAATTCTCCAACCGCATTTTC
DNA 2: CGAAAATGCGGTTGGAGAATT
Question: Does B2 bind [2]?
Answer: Result: binds

B3: C10:G13* (dsDNA)
DNA 1: AAATTCTCCCACCGCATTTTC
DNA 2: GAAAATGCGGTGGGAGAATTT
Question: For B3, which Kd [1] is on record?
Answer: The Kd was 2 µM.

B4: T14:A9* (dsDNA)
DNA 1: AAATTCTCCAACCTCATTTTC
DNA 2: GAAAATGAGGTTGGAGAATTT
Question: Does B4 bind [1]?
Answer: Result: binds

B5: 6mA10 DNA (6mAAC) (dsDNA)
DNA 1: AAATTCTCCAACCGCATTTTC
DNA 2: GAAAATGCGGTTGGAGAATTT
modifications: 6mA at A10 of strand 1
Question: How did the binding signal [3] turn out when B5 was run?
Answer: The binding signal was 12 fold decrease in affinity vs N1.

B6: 5mC12 DNA (AA5mC) (dsDNA)
DNA 1: AAATTCTCCAACCGCATTTTC
DNA 2: GAAAATGCGGTTGGAGAATTT
modifications: 5mC at C12 of strand 1
Question: B6 was tested. Which Kd [1] did it give?
Answer: Its Kd is 2.34 µM.

B7: 6mA11 DNA (A6mAC) (dsDNA)
DNA 1: AAATTCTCCAACCGCATTTTC
DNA 2: GAAAATGCGGTTGGAGAATTT
modifications: 6mA at A11 of strand 1
Question: For B7, which binding signal [3] is on record?
Answer: The binding signal was 5 fold decrease in affinity vs N1.

B8: GL2 promoter WER target DNA (dsDNA)
DNA 1: AAATTCTCCAACCGCATTTTC
DNA 2: GAAAATGCGGTTGGAGAATTT
Question: For B8, which Kd [1] is on record?
Answer: The Kd was about 0.051 µM.

B9: 6mA10,6mA11 DNA (6mA6mAC) (dsDNA)
DNA 1: AAATTCTCCAACCGCATTTTC
DNA 2: GAAAATGCGGTTGGAGAATTT
modifications: 6mA at A10 and A11 of strand 1
Question: Which binding signal [3] does the source give for B9 here?
Answer: Its binding signal is > 20 fold decrease in affinity vs N1.

B10: C14:G9* (dsDNA)
DNA 1: AAATTCTCCAACCCCATTTTC
DNA 2: GAAAATGGGGTTGGAGAATTT
Question: For B10, which binding signal [4] is on record?
Answer: Its binding signal is 40 fold decrease in affinity vs N1.

B11: A14:T9* (dsDNA)
DNA 1: AAATTCTCCAACCACATTTTC
DNA 2: GAAAATGTGGTTGGAGAATTT
Question: Does B11 bind [1]?
Answer: Result: binds
